Data set [1] deals with T1, ALX4 R218Q (Mus musculus (region identical to human), UniProt Q9H161 209-274, R218Q). Description: ITC.
The target of data set [2] is ALX4 K211E (Mus musculus (region identical to human), UniProt Q9H161 209-274, K211E). Kind of data set: EMSA.
The target in data set [3] is ALX4 R272P (Mus musculus (region identical to human), UniProt Q9H161 209-274, R272P). Description: EMSA.
Data set [4] has as its target ALX4 169-303;ALX4 HD (209-274) (Mus musculus (region identical to …, UniProt Q9H161;Q9H161 169-303;209-274, |)). Description: EMSA.
The target of data set [5] is ALX4 R215A;R216A (Mus musculus (region identical to human), UniProt Q9H161 209-274, R215A;R216A). Kind of data set: EMSA.
ALX4 R215A;R216A, sequence (Q9H161 209-274 R215A/R216A): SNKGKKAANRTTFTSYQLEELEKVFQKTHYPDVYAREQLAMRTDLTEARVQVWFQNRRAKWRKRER
In data set [6] the target is ALX4 R216A (Mus musculus (region identical to human), UniProt Q9H161 209-274, R216A). Description: EMSA.
ALX4 R216A, sequence (Q9H161 209-274 R216A): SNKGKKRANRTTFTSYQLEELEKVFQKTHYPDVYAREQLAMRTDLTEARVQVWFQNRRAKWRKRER
Data set [7] concerns the target ALX4 R215A (Mus musculus (region identical to human), UniProt Q9H161 209-274, R215A). Kind of data set: EMSA.
Data set [8] concerns the target ALX4 169-303;ALX4 R272P (Mus musculus (region identical to …, UniProt Q9H161;Q9H161 169-303;209-274, |R272P)). Description: EMSA.
The target in data set [9] is ALX4 169-303;ALX4 K211E (Mus musculus (region identical to …, UniProt Q9H161;Q9H161 169-303;209-274, |K211E)). Kind of data set: EMSA.
ALX4 169-303;ALX4 K211E (Mus musculus, sequence (Q9H161 169-303, stated change not applied, chain 1 of 2): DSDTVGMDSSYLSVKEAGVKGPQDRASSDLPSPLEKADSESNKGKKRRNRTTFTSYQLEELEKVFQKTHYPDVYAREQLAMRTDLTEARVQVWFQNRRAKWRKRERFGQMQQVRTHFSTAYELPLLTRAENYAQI
ALX4 169-303;ALX4 K211E (Mus musculus, sequence (Q9H161 209-274 K211E, chain 2 of 2): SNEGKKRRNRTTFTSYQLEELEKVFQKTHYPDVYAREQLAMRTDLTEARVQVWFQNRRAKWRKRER
Data set [10] deals with ALX4 Q225E (Mus musculus (region identical to human), UniProt Q9H161 209-274, Q225E). Kind of data set: EMSA.
ALX4 Q225E, sequence (Q9H161 209-274 Q225E): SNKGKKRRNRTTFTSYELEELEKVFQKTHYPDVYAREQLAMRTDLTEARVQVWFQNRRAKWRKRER
Data set [11] addresses ALX4 R216G (Mus musculus (region identical to human), UniProt Q9H161 209-274, R216G). Description: EMSA.
For data set [12], the target named is T1, ALX4 R218Q. Description: EMSA.

T1 sequence (Q9H161 209-274 R218Q): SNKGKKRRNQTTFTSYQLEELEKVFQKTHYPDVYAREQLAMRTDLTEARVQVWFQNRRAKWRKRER
ALX4 169-303;ALX4 HD (209-274) (Mus musculus, sequence (Q9H161 169-303, chain 1 of 2): as the sequence (Q9H161 169-303, stated change not applied, chain 1 of 2) above
ALX4 169-303;ALX4 HD (209-274) (Mus musculus, sequence (Q9H161 209-274, chain 2 of 2): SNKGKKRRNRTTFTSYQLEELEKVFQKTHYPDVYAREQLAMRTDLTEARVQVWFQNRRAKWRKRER
ALX4 169-303;ALX4 R272P (Mus musculus, sequence (Q9H161 169-303, stated change not applied, chain 1 of 2): as the sequence (Q9H161 169-303, stated change not applied, chain 1 of 2) above
ALX4 169-303;ALX4 R272P (Mus musculus, sequence (Q9H161 209-274 R272P, chain 2 of 2): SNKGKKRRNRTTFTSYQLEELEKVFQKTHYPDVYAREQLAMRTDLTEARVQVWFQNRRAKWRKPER
ALX4 R215A, sequence (Q9H161 209-274 R215A): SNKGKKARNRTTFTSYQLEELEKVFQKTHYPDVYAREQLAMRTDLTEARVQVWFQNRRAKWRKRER
ALX4 R216G, sequence (Q9H161 209-274 R216G): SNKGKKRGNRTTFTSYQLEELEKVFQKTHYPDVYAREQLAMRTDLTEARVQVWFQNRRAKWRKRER
ALX4 K211E, sequence (Q9H161 209-274 K211E): as the sequence (Q9H161 209-274 K211E, chain 2 of 2) above
ALX4 R272P, sequence (Q9H161 209-274 R272P): as the sequence (Q9H161 209-274 R272P, chain 2 of 2) above

B1: 14mer ITC duplex (dsDNA)
DNA 1: CGCTAATTAGCTCG
DNA 2: CGAGCTAATTAGCG
With B1, the binding result in data set [1] is “no binding”.

B2: P3 EMSA probe (dsDNA)
DNA 1: TGTGTCTTAATTAGATTAACGCACTTGATAGTGCGGGCGTGGCT
DNA 2: AGCCACGCCCGCACTATCAAGTGCGTTAATCTAATTAAGACACA
Turning to B2, the binding result is given as “binds” in data set [2]; “binds” in data set [3]; “binds” in [4]; “binds” in data set [8]; “binds” in [9]; “no binding” in [12]. Besides, the binding signal in [5] is ~20 fold reduction of Tau vs WT; in data set [6], ~10 fold reduction of Tau vs WT; in data set [7] it was ~5 fold reduction of Tau vs WT; in data set [10] it was ~2 fold reduction of Tau vs WT; in data set [11], ~10 fold reduction of Tau vs WT.

The values above are taken from paper PMC12102336.
